Laboratory results as given in patent US20180017550A1.

Target: human APC mutation cluster region fragment (codons 1,294-1,369) with N-terminal VSV tag, 4 glycine s (human) (UniProt P25054)
Sequence (P25054 other isoform, or with tags, fused parts or gaps limits assumed): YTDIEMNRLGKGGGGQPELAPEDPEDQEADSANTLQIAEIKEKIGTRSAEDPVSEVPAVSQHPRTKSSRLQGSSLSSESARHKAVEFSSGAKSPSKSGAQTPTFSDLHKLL

## anti-VSV antibody conjugated to the Cy3 fluorophore (clone P5D4; Sigma-Aldrich, St. Louis, Mo.)
  signal to noise ratio: 179 :1
